Laboratory results from US20240109961A1 (CELLDEX THERAPEUTICS, published 2024).

Tests used:
[1] = biological target: T1, recombinant human FcγRIIIa (human, UniProt P08637 17-208); assay: bio-layer interferometry (Octet QKe); His-tagged receptor on anti-Penta-His biosensor, antibody in solution
T1 construct: Histidine-tagged recombinant receptor; not shown: histidine tag

[2] = biological target: T2, recombinant human FcγRIIb (human, UniProt P31994 46-217, limits assumed); assay: as above
T2 construct: Histidine-tagged recombinant receptor; not shown: histidine tag
T2 sequence (looked up): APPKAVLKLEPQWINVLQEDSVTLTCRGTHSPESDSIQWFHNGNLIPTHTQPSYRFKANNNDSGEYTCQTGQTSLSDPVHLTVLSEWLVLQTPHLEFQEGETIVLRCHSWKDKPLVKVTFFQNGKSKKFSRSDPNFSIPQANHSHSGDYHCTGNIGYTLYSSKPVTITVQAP

[3] = biological target: T3, recombinant human FcγRIIa (human, UniProt P12318 36-218, limits assumed); assay: as above
T3 construct: Histidine-tagged recombinant receptor; not shown: histidine tag
T3 sequence (looked up): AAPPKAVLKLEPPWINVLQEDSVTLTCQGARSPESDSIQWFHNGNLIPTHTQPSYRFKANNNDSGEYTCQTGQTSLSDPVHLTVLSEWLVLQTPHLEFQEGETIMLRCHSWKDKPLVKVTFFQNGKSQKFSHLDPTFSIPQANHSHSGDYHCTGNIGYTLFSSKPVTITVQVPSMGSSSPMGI

[4] = biological target: T4, recombinant human FcγRIIIb (human, UniProt O75015 17-200); assay: as above
T4 construct: Histidine-tagged recombinant receptor; not shown: histidine tag
T4 sequence (O75015 17-200 limits assumed): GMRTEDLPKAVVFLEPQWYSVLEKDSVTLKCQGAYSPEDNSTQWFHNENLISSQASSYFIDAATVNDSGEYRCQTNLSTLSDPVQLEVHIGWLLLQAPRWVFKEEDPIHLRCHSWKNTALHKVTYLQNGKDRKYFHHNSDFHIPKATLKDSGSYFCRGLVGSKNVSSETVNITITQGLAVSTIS

[5] = biological target: T5, recombinant human FcγRI (human, UniProt P12314 16-288, limits assumed); assay: as above
T5 construct: Histidine-tagged recombinant receptor captured on anti-Penta-His biosensors; also called Fc-gamma receptor I; not shown: histidine tag
T5 sequence (P12314 16-288 limits assumed): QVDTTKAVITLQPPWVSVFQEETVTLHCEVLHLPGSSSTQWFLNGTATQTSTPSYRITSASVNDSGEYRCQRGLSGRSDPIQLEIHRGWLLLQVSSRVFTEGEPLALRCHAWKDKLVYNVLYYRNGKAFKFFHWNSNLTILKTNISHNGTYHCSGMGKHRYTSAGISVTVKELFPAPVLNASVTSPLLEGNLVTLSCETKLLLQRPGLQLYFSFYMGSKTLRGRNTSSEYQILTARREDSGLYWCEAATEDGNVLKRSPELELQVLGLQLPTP

[6] = biological target: T6, human neonatal Fc Receptor (FcRn) (human, UniProt P55899 24-297; P61769 21-119); assay: bio-layer interferometry (Octet QKe) at pH 7.2; His-tagged FcRn on anti-Penta-His biosensor, antibody in solution
T6 construct: not shown: histidine tag

[7] = biological target: T6, human neonatal Fc Receptor (FcRn); assay: bio-layer interferometry (Octet QKe), His-tagged FcRn captured on anti-Penta-His biosensors, pH 6.0, antibody range 31.25-1.9 nM, R2 0.9869; row head Kdis(1/s)
Experimental: (§1) Binding to recombinant human Fc receptors was measured by bio-layer interferometry using an Octet® QKe instrument. […] Curve fitting was performed using the instrument's analysis software. Binding to FcRn was performed with association and dissociation steps at pH 6.0 as well as pH 7.2.

[8] = biological target: human KIT (wild-type KIT) (human, UniProt P10721 26-976); assay: cell-based or functional assay
Chain of human KIT (wild-type KIT) (P10721 other isoform, or with tags, fused parts or gaps limits assumed): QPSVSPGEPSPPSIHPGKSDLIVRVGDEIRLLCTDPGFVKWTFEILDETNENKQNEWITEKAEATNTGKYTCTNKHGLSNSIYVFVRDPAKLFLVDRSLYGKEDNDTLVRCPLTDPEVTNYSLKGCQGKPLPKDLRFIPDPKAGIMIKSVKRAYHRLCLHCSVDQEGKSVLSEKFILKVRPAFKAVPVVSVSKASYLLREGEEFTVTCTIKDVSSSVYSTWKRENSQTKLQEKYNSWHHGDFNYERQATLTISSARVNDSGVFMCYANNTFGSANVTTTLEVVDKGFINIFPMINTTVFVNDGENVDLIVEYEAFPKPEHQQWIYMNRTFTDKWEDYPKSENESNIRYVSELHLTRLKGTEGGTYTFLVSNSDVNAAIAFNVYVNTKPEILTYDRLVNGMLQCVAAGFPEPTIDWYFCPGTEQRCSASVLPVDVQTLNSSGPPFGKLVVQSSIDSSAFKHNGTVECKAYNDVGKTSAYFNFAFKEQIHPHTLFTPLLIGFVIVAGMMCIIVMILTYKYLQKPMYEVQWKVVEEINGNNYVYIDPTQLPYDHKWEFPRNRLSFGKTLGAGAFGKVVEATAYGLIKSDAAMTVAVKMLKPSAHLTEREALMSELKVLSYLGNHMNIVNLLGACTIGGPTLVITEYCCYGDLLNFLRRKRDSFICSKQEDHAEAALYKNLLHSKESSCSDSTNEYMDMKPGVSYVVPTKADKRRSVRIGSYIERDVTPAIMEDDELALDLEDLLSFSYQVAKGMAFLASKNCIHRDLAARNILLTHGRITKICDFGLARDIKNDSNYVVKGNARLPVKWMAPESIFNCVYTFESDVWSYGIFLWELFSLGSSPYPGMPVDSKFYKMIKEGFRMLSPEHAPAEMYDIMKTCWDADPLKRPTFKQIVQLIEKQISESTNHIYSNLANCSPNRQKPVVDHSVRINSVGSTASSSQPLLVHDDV

[9] = biological target: T6, human neonatal Fc Receptor (FcRn); assay: bio-layer interferometry (Octet QKe) at pH 6.0; His-tagged FcRn on anti-Penta-His biosensor, antibody in solution
Experimental: as §1

[10] = biological target: T6, human neonatal Fc Receptor (FcRn); assay: bio-layer interferometry (Octet QKe), His-tagged FcRn captured on anti-Penta-His biosensors, pH 7.2, antibody range 500-15.6 nM, R2 0.9876; row head Kdis(1/s)
Experimental: as §1

[11] = biological target: T6, human neonatal Fc Receptor (FcRn); assay: bio-layer interferometry (Octet QKe), His-tagged FcRn captured on anti-Penta-His biosensors, pH 6.0, antibody range 31.25-1.9 nM, R2 0.9869
Experimental: as §1

[12] = biological target: T6, human neonatal Fc Receptor (FcRn); assay: bio-layer interferometry (Octet QKe), His-tagged FcRn captured on anti-Penta-His biosensors, pH 7.2, antibody range 500-15.6 nM, R2 0.9876
Experimental: as §1

T1 sequence (P08637 17-208 limits assumed): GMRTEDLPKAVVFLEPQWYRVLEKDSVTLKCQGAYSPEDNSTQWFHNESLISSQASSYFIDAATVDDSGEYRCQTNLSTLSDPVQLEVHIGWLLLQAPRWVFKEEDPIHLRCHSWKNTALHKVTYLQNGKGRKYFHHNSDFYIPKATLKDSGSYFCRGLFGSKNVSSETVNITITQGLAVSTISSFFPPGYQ

binding result [1]: no binding (tested: 500 nM)
binding result [2]: no binding (tested: 500 nM)
binding result [3]: no binding (tested: 500 nM)
binding result [4]: no binding (tested: 500 nM)
binding result [5]: no binding (tested: 500 nM)
Kd [6]: 77.1 nM
koff [7]: 0.000765 s⁻¹
mean IC50, inhibition of SCF-dependent M-07e cell proliferation [8]: 1.11 nM
Kd [9]: 0.38 nM
koff [10]: 0.0807 s⁻¹
Kd [11]: 0.383 nM
kon [11]: 2e+06 M⁻¹ s⁻¹
kon [12]: 1.05e+06 M⁻¹ s⁻¹
B1: mAb1 (antibody)
heavy: QVQLVQSGAEVKKPGASVKLSCKASGYTFTDYYINWVRQAPGKGLEWIARIYPGSGNTYYNEKFKGRATLTADKSTSTAYMQLSSLRSEDTAVYFCARGVYYFDYWGQGTTVTVSSASTKGPSVFPLAPSSKSTSGGTAALGCLVKDYFPEPVTVSWNSGALTSGVHTFPAVLQSSGLYSLSSVVTVPSSSLGTQTYICNVNHKPSNTKVDKKVEPKSCDKTHTCPPCPAPEAQGGPSVFLFPPKPKDTLYITREPEVTCVVVDVSHEDPEVKFNWYVDGVEVHNAKTKPREEQYNSTYRVVSVLTVLHQDWLNGKEYKCQVSNKALPAPIEKTISKAKGQPREPQVYTLPPSRDELTKNQVSLTCLVKGFYPSDIAVEWESNGQPENNYKTTPPVLDSDGSFFLYSKLTVDKSRWQQGNVFSCSVMHEALHNHYTQKSLSLSPG
light: DIVMTQSPSSLSASVGDRVTITCKASQNVRTNVAWYQQKPGKAPKALIYSASYRYSGVPDRFTGSGSGTDFTLTISSLQPEDFADYFCQQYNSYPRTFGGGTKVEIKRTVAAPSVFIFPPSDEQLKSGTASVVCLLNNFYPREAKVQWKVDNALQSGNSQESVTEQDSKDSTYSLSSTLTLSKADYEKHKVYACEVTHQGLSSPVTKSFNRGEC
notes: Expressed in CHO cells; also called anti-KIT antibody mAb1; Fc mutated anti-KIT antibody
